± gives the standard error.
Assay: background-corrected fluorescence of 3'-dye-labeled ssDNA relative to brightest sequence (3'-GCGCG) (fraction); higher = brighter dye fluorescence (less quenching)
How it was run: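 Light-directed phosphoramidite synthesis on glass slides produced single-stranded DNA carrying a 3' Cy3 or Cy5 dye next to each of 1024 permuted pentamers. After a 2 h acetonitrile wash at r.t., arrays were scanned at 532 or 635 nm both before and after overnight deprotection in ethylenediamine/ethanol. Every value is the mean of 10 features per array over at least 3 syntheses. Fluorescence had unlabeled-oligo background subtracted and was scaled to the brightest sequence.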

Sequence	background-corrected fluorescence (dye: Cy3 (3' terminal))	background-corrected fluorescence (dye: Cy5 (3' terminal))
TTTTTTGCGCAGCATGATGCTTTTTTTTTTTTTTTATTCA [ACTTA]	0.484 ± 0.035	0.351 ± 0.021
TTTTTTGCGCAGCATGCGCATTTTTTTTTTTTTTTATTAT	0.508 ± 0.031	0.418 ± 0.024
TTTTTTGCGCAGCATGCTCATTTTTTTTTTTTTTTATTAG [GATTA]	0.552 ± 0.011	0.421 ± 0.058
TTTTTTGCGCAGCATGCTGATTTTTTTTTTTTTTTATTAC [CATTA]	0.405 ± 0.022	0.334 ± 0.032
TTTTTTGCGCAGCATGCTGCTTTTTTTTTTTTTTTATTAA [AATTA]	0.585 ± 0.024	0.416 ± 0.035
TTTTTTGCGCATCAGCAGCATTTTTTTTTTTTTTTATGTT [TTGTA]	0.575 ± 0.028	0.432 ± 0.035
TTTTTTGCGCATCAGCATCATTTTTTTTTTTTTTTATGTG [GTGTA]	0.607 ± 0.043	0.452 ± 0.034
TTTTTTGCGCATCAGCATGATTTTTTTTTTTTTTTATGTC [CTGTA]	0.454 ± 0.021	0.351 ± 0.046
TTTTTTGCGCATCAGCATGCTTTTTTTTTTTTTTTATGTA	0.549 ± 0.017	0.47 ± 0.039
TTTTTTGCGCATCATCAGCATTTTTTTTTTTTTTTATGGT [TGGTA]	0.649 ± 0.027	0.561 ± 0.028
TTTTTTGCGCATCATCATCATTTTTTTTTTTTTTTATGGG [GGGTA]	0.661 ± 0.035	0.548 ± 0.037
TTTTTTGCGCATCATCATGATTTTTTTTTTTTTTTATGGC [CGGTA]	0.545 ± 0.043	0.445 ± 0.026
TTTTTTGCGCATCATCATGCTTTTTTTTTTTTTTTATGGA [AGGTA]	0.712 ± 0.02	0.599 ± 0.041
TTTTTTGCGCATCATGAGCATTTTTTTTTTTTTTTATGCT [TCGTA]	0.518 ± 0.029	0.393 ± 0.02
TTTTTTGCGCATCATGATCATTTTTTTTTTTTTTTATGCG [GCGTA]	0.587 ± 0.017	0.49 ± 0.035
TTTTTTGCGCATCATGATGATTTTTTTTTTTTTTTATGCC [CCGTA]	0.436 ± 0.0052	0.319 ± 0.02
TTTTTTGCGCATCATGATGCTTTTTTTTTTTTTTTATGCA [ACGTA]	0.527 ± 0.024	0.46 ± 0.036
TTTTTTGCGCATCATGCGCATTTTTTTTTTTTTTTATGAT [TAGTA]	0.615 ± 0.028	0.471 ± 0.03
TTTTTTGCGCATCATGCTCATTTTTTTTTTTTTTTATGAG [GAGTA]	0.602 ± 0.036	0.466 ± 0.04
TTTTTTGCGCATCATGCTGATTTTTTTTTTTTTTTATGAC [CAGTA]	0.469 ± 0.0096	0.376 ± 0.02
TTTTTTGCGCATCATGCTGCTTTTTTTTTTTTTTTATGAA [AAGTA]	0.594 ± 0.017	0.51 ± 0.053
TTTTTTGCGCATGAGCAGCATTTTTTTTTTTTTTTATCTT [TTCTA]	0.458 ± 0.0056	0.35 ± 0.024
TTTTTTGCGCATGAGCATCATTTTTTTTTTTTTTTATCTG [GTCTA]	0.55 ± 0.026	0.371 ± 0.036

Sequence	background-corrected fluorescence (dye: Cy3 (3' terminal))	background-corrected fluorescence (dye: Cy5 (3' terminal))
TTTTTTGCGCATGAGCATGATTTTTTTTTTTTTTTATCTC [CTCTA]	0.41 ± 0.024	0.291 ± 0.02
TTTTTTGCGCATGAGCATGCTTTTTTTTTTTTTTTATCTA	0.482 ± 0.029	0.368 ± 0.025
TTTTTTGCGCATGATCAGCATTTTTTTTTTTTTTTATCGT [TGCTA]	0.605 ± 0.011	0.449 ± 0.027
TTTTTTGCGCATGATCATCATTTTTTTTTTTTTTTATCGG [GGCTA]	0.609 ± 0.022	0.504 ± 0.027
TTTTTTGCGCATGATCATGATTTTTTTTTTTTTTTATCGC [CGCTA]	0.534 ± 0.017	0.439 ± 0.02
TTTTTTGCGCATGATCATGCTTTTTTTTTTTTTTTATCGA [AGCTA]	0.635 ± 0.0066	0.517 ± 0.043
TTTTTTGCGCATGATGAGCATTTTTTTTTTTTTTTATCCT [TCCTA]	0.447 ± 0.015	0.348 ± 0.02
TTTTTTGCGCATGATGATCATTTTTTTTTTTTTTTATCCG [GCCTA]	0.518 ± 0.023	0.427 ± 0.035
TTTTTTGCGCATGATGATGATTTTTTTTTTTTTTTATCCC [CCCTA]	0.369 ± 0.026	0.247 ± 0.016
TTTTTTGCGCATGATGATGCTTTTTTTTTTTTTTTATCCA [ACCTA]	0.476 ± 0.012	0.373 ± 0.038
TTTTTTGCGCATGATGCGCATTTTTTTTTTTTTTTATCAT [TACTA]	0.511 ± 0.02	0.408 ± 0.028
TTTTTTGCGCATGATGCTCATTTTTTTTTTTTTTTATCAG [GACTA]	0.56 ± 0.045	0.411 ± 0.03
TTTTTTGCGCATGATGCTGATTTTTTTTTTTTTTTATCAC [CACTA]	0.399 ± 0.025	0.325 ± 0.032
TTTTTTGCGCATGATGCTGCTTTTTTTTTTTTTTTATCAA [AACTA]	0.522 ± 0.012	0.411 ± 0.035
TTTTTTGCGCATGCGCAGCATTTTTTTTTTTTTTTATATT	0.543 ± 0.019	0.392 ± 0.024
TTTTTTGCGCATGCGCATCATTTTTTTTTTTTTTTATATG [GTATA]	0.531 ± 0.013	0.407 ± 0.024
TTTTTTGCGCATGCGCATGATTTTTTTTTTTTTTTATATC [CTATA]	0.438 ± 0.025	0.322 ± 0.017
TTTTTTGCGCATGCGCATGCTTTTTTTTTTTTTTTATATA	0.537 ± 0.034	0.431 ± 0.042
TTTTTTGCGCATGCTCAGCATTTTTTTTTTTTTTTATAGT [TGATA]	0.587 ± 0.029	0.482 ± 0.041
TTTTTTGCGCATGCTCATCATTTTTTTTTTTTTTTATAGG [GGATA]	0.628 ± 0.019	0.516 ± 0.03
TTTTTTGCGCATGCTCATGATTTTTTTTTTTTTTTATAGC [CGATA]	0.519 ± 0.027	0.407 ± 0.031
TTTTTTGCGCATGCTCATGCTTTTTTTTTTTTTTTATAGA [AGATA]	0.602 ± 0.037	0.489 ± 0.045
TTTTTTGCGCATGCTGAGCATTTTTTTTTTTTTTTATACT [TCATA]	0.504 ± 0.024	0.378 ± 0.019

Sequence	background-corrected fluorescence (dye: Cy3 (3' terminal))	background-corrected fluorescence (dye: Cy5 (3' terminal))
TTTTTTGCGCATGCTGATCATTTTTTTTTTTTTTTATACG [GCATA]	0.574 ± 0.022	0.43 ± 0.029
TTTTTTGCGCATGCTGATGATTTTTTTTTTTTTTTATACC [CCATA]	0.411 ± 0.027	0.295 ± 0.018
TTTTTTGCGCATGCTGATGCTTTTTTTTTTTTTTTATACA [ACATA]	0.492 ± 0.031	0.372 ± 0.024
TTTTTTGCGCATGCTGCGCATTTTTTTTTTTTTTTATAAT [TAATA]	0.567 ± 0.0072	0.418 ± 0.026
TTTTTTGCGCATGCTGCTCATTTTTTTTTTTTTTTATAAG [GAATA]	0.532 ± 0.019	0.429 ± 0.031
TTTTTTGCGCATGCTGCTGATTTTTTTTTTTTTTTATAAC [CAATA]	0.434 ± 0.032	0.327 ± 0.023
TTTTTTGCGCATGCTGCTGCTTTTTTTTTTTTTTTATAAA [AAATA]	0.567 ± 0.044	0.507 ± 0.069
TTTTTTGCTCAGCAGCAGCATTTTTTTTTTTTTTTAGTTT [TTTGA]	0.577 ± 0.017	0.404 ± 0.022
TTTTTTGCTCAGCAGCATCATTTTTTTTTTTTTTTAGTTG [GTTGA]	0.516 ± 0.037	0.408 ± 0.034
TTTTTTGCTCAGCAGCATGATTTTTTTTTTTTTTTAGTTC [CTTGA]	0.433 ± 0.023	0.335 ± 0.025
TTTTTTGCTCAGCAGCATGCTTTTTTTTTTTTTTTAGTTA [ATTGA]	0.57 ± 0.0086	0.409 ± 0.016
TTTTTTGCTCAGCATCAGCATTTTTTTTTTTTTTTAGTGT [TGTGA]	0.572 ± 0.021	0.474 ± 0.033
TTTTTTGCTCAGCATCATCATTTTTTTTTTTTTTTAGTGG [GGTGA]	0.625 ± 0.034	0.546 ± 0.076
TTTTTTGCTCAGCATCATGATTTTTTTTTTTTTTTAGTGC [CGTGA]	0.518 ± 0.047	0.405 ± 0.024
TTTTTTGCTCAGCATCATGCTTTTTTTTTTTTTTTAGTGA	0.645 ± 0.022	0.536 ± 0.037
TTTTTTGCTCAGCATGAGCATTTTTTTTTTTTTTTAGTCT [TCTGA]	0.472 ± 0.018	0.368 ± 0.029
TTTTTTGCTCAGCATGATCATTTTTTTTTTTTTTTAGTCG [GCTGA]	0.579 ± 0.024	0.444 ± 0.036
TTTTTTGCTCAGCATGATGATTTTTTTTTTTTTTTAGTCC [CCTGA]	0.41 ± 0.024	0.329 ± 0.04
TTTTTTGCTCAGCATGATGCTTTTTTTTTTTTTTTAGTCA [ACTGA]	0.529 ± 0.013	0.407 ± 0.029
TTTTTTGCTCAGCATGCGCATTTTTTTTTTTTTTTAGTAT [TATGA]	0.554 ± 0.031	0.417 ± 0.028
TTTTTTGCTCAGCATGCTCATTTTTTTTTTTTTTTAGTAG [GATGA]	0.605 ± 0.054	0.46 ± 0.032
TTTTTTGCTCAGCATGCTGATTTTTTTTTTTTTTTAGTAC [CATGA]	0.485 ± 0.006	0.371 ± 0.027

— the supplement of paper PMC9428881
